This is an account of results in patent US20240034792A1 (HARBOUR BIOMED SHANGHAI, published 2024).

One may read the EC50 as the concentration needed to bring the measured effect to its halfway point. Read a high EC50 as a need for much substance. The Kd is the free concentration of one partner at which half of the binding sites on the other are occupied at equilibrium, for simple one-to-one binding. For orientation: koff means the first-order rate constant of dissociation. A word on the kon: it is a measure of how fast the partners come together. The IC50 is the concentration that inhibits the measured activity by half. Read a low IC50 as greater potency.

Numbering of substitutions follows the chain as printed. Where two headings read alike, the source gives them in different places. A value given as a limit tells only on which side of the number the result lay.

Test [1] addresses T1, Human PD-1 expressed on CHO-K1 cells (CHO-K1/hPD-1) (human, UniProt Q15116 25-288).
T1 construct: whole, on cells; also called CHO-K1 cells overexpressing human PD-1
The test is described as follows: FACS, CHO-K1/hPD-1 cells. Here is the method:
(§1) In order to investigate the in vitro binding activity of the PD-1 antigen-binding proteins to human/cynomolgus monkey PD-1, the binding assay at the cellular level was performed using a CHO-K1 cell strain overexpressing human or cynomolgus monkey PD-1 (CHO-K1/hPD-1 or CHO-K1/cyno PD-1, from GenScript). Briefly, the CHO-K1-hPD-1 cells were digested and resuspended in an F-12K complete medium, and the cell density was adjusted to 1×10⁶ cells/mL. The cells were seeded in a 96-well V-bottom plate (Corning, Cat#3894) at 100 μL/well, followed by the addition of the test antigen-binding proteins with concentrations 2-fold of final concentrations obtained by 5-fold gradient dilution were each added at 100 μL/well. The mixtures were well mixed. The maximum final concentration of the antigen-binding proteins was 100 nM or 300 nM. A total of 8-11 concentrations were set. hIgG was used as a control. The cells were incubated at 4° C. for 1 h away from light. Thereafter, the cells in each well were rinsed twice with 100 μL of pre-cooled PBS, and centrifuged at 500 g at 4° C. for 5 min, and then the supernatant was discarded. Then 100 μL of a fluorescent secondary antibody (goat anti-human IgG (H+L) secondary antibody, Alexa Fluor® 488 conjugate, Invitrogen, Cat #A11013, 1:1000) was added to each well. The plate was incubated away from light at 4° C. for 30 min. The cells in each well were rinsed twice with 200 μL of pre-cooled PBS, and centrifuged at 500 g at 4° C. for 5 min, and then the supernatant was discarded. Finally, the cells in each well were resuspended in 200 μL of pre-cooled PBS, and the fluorescence signal values were read using a BD FACS CANTOII.
(In flow cytometry, cells or beads pass a laser one at a time.)

The target of test [2] is T1, Human PD-1 expressed on CHO-K1 cells …. In words: FACS, CHO-K1/hPD-1 cells. The protocol: as §1
This is another data set of the same source.

Test [3] deals with T2, Human PD-1 protein with histidine and avi tags (ACRO Biosystems, PD1-H82E4) (human, UniProt Q15116 25-167).
T2 construct: Captured on streptavidin (SA) sensors in the BLI assay; not shown: histidine and avi tags
T2 sequence (Q15116 25-167 limits assumed): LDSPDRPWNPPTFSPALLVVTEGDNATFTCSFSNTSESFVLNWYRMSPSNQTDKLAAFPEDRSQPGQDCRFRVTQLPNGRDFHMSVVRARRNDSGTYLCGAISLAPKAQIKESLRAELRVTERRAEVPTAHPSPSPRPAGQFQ
In words: BLI (Octet Red96e), PD-1 captured on SA sensor, 1:1 local fit. Here is the method: (§2) Human PD-1 proteins with histidine and avi tags were purchased from the manufacturer ACRO Biosystems (Cat#: PD1-H82E4), and the assay buffer was 1× kinetics buffer (diluted from 10× kinetics buffer (ForteBio, Cat#: 18-1105)) for kinetic assay and dilution of antigens and antibodies. The binding kinetics between the antigen and the antibody was analyzed by the biolayer interferometry (BLI) technique using an Octet molecular interaction analyzer (ForteBio, model: Octet Red96e).
(§3) When the binding kinetics between the antigen and the antibody was determined, the rotation speed of the sensor was set at 1000 rpm/min. The eight SA sensors placed in a column were first equilibrated in an assay buffer for 10 min and then used to capture PD-1 at a capture height of 0.5 nm. Thereafter, the SA sensors were equilibrated in the assay buffer for 100 s, and then were associated with each antibody diluted to a single concentration and with a row of blank buffer wells for 180 s, followed by dissociation for 600 s. A new column of SA sensors were used in each cycle.
(§4) When data analysis was performed using Octet Data Analysis software (Fortebio, version 11.0), the reference signals were subtracted by a single reference mode (reference well), the data were fitted by a “1:1 Local fitting” method, and the kinetic parameters of the binding of the antigen to the antibody were calculated to obtain kon (1/Ms) values, kdis (1/s) values and KD (M) values.
On the technique in general: In BLI a coated tip is dipped into the sample, and binding shifts an interference pattern.

The target of test [4] is T2, Human PD-1 protein with histidine and …. In words: BLI; ratio of kdis, apparently PR005090 over the variant. Here is the method: as §2, §3, §4
Test [5] addresses T1, Human PD-1 expressed on CHO-K1 cells …. In words: FACS blocking of biotin-labeled human PD-L1 binding to CHO-K1-hPD-1 cells. Here is the method: Briefly, the CHO-K1-hPD-1 cells were digested and resuspended in an F-12K complete medium, and the cell density was adjusted to 1×10⁶ cells/mL. The cells were seeded in a 96-well V-bottom plate (Corning, Cat#3894) at 100 μL/well, followed by the addition of the test antigen-binding proteins with concentrations 2-fold of final concentrations obtained by 3-fold or 5-fold gradient dilution were each added at 100 μL/well. The mixtures were well mixed. The maximum final concentration of the antigen-binding proteins was 100 nM or 300 nM. A total of 8 concentrations were set. hIgG was used as a control. The cells were incubated at 4° C. for 1 h away from light. […] The cells were incubated at 4° C. away from light for 30 min. The cells in each well were rinsed twice with 100 μL of pre-cooled PBS, and centrifuged at 500 g at 4° C. for 5 min, and then the supernatant was discarded. A fluorescent secondary antibody (PE Streptavidin, BD, Cat# 554061, 1:200) was added at 100 μL/well, and the cells were incubated at 4° C. away from light for 30 min. The cells in each well were rinsed twice with 200 μL of pre-cooled PBS, and centrifuged at 500 g at 4° C. for 5 min, and then the supernatant was discarded. Finally, the cells in each well were resuspended in 200 μL of pre-cooled PBS, the fluorescence signal values were read using a BD FACS CANTOII, and the IC₅₀ values were calculated.

T1 sequence (Q15116 25-288): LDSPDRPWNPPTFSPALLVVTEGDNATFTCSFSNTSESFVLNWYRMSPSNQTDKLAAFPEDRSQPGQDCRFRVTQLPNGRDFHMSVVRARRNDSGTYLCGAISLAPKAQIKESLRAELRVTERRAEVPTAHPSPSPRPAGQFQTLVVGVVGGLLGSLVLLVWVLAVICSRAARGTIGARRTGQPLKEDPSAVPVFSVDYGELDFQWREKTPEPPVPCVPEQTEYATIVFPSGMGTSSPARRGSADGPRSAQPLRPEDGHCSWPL

B1: PR005090 (VHH)
VHH: EVQLVETGGGLIQPGGSLRLSCAASGFNVSSHYMSWVRQAPGKGREWVSIIDGGGSTYYADSVKGRFTISRDNSKNRLYLQMNSLRAEDTAMYYCARATAVAEKNGYNYPFNYWGQGTLVTVSS
notes: Monovalent single-domain (VH) antibody with Flag-6His tag
For B1, in test [1], the EC50 is 48.9 nM and the “MFI Maximum” value came to 4150. Besides, in test [2], the EC50 stood at 48.9 nM and the “MFI Maximum” value worked out at 4150. Besides, in test [3], the affinity, expressed as Kd, was 20.8 nM; the koff came to 0.00114 s⁻¹; the kon stood at 55000 M⁻¹ s⁻¹.

B2: PR005148 (VHH)
VHH: B1 VHH with G53K, G54A, T57G, D61A, A100E, A102R
notes: Monovalent single-domain (VH) variant of PR002481 with Flag-6His tag
As for B2, in test [2], the EC50 was 27.6 nM and the “MFI Maximum” value was found to be 11700. Moreover, the kdis ratio in test [4] amounted to 20. In test [3], this molecule registered a Kd of 1.21 nM, an off-rate (koff) of 5.72e-05 s⁻¹ and a kon of 47200 M⁻¹ s⁻¹.

B3: PR005149 (VHH)
VHH: B1 VHH with G53K, G54A, T57G, A100E, A102R, N105Q
notes: as for B2
As to B3, in test [2], the midpoint of the response, the EC50, lay at 10.9 nM and the “MFI Maximum” value turned out to be 11100. Moreover, the kdis ratio in test [4] was 23.7. Further, in test [3], the affinity, expressed as Kd, was 14 nM; the koff stood at 4.83e-05 s⁻¹; the on-rate constant (kon) is 3450 M⁻¹ s⁻¹.

B4: PR002473 (antibody, human IgG1, V domains shown)
VH: B1 VHH with R45L, D52H, G53S, R86I, M92V, T99I
notes: Heavy-chain-only antibody (HCAb), human IgG1 Fc; two heavy chains, no light chain; also called R4004P541H11
Regarding B4, in test [2], the EC50 came to 25.6 nM and the “MFI Maximum” value turned out to be 1.04e+06. In test [5], the IC50 was 4.79 nM and the “Maximum inhibition rate (%)” value is 62.2%.

B5: PR002477 (antibody, human IgG1, V domains shown)
VH: B1 VHH with R45L, D52H, G53S, M92V, T99I
notes: Heavy-chain-only antibody (HCAb), human IgG1 Fc; two heavy chains, no light chain; also called R4004P547H9
B5: in test [2], the response was half-maximal at 29.3 nM (EC50) and the “MFI Maximum” value was 955000. In test [5], the IC50 is 7.7 nM and the “Maximum inhibition rate (%)” value came to 67.5%.

B6: PR005146 (VHH)
VHH: B1 VHH with S31F, G54A, T57G, D61A, A100M, A102R, N105Q
notes: as for B2
For B6, in test [4], the kdis ratio was 1.89. In test [3], this molecule gave a Kd of 1020 nM, a koff of 0.000605 s⁻¹ and a kon of 593 M⁻¹ s⁻¹.

B7: PR005144 (VHH)
VHH: B1 VHH with S31F, H32Y, G53K, G54S, D61A, A100E, A102R
notes: as for B2
As for B7, in test [2], the half-maximal effective concentration (EC50) came out at 22.9 nM and the “MFI Maximum” value came out at 11600. For the same molecule, in test [4], the kdis ratio turned out to be 25.2. In test [3], this molecule had a Kd of 4.51 nM, a koff of 4.52e-05 s⁻¹ and a kon of 10000 M⁻¹ s⁻¹.

B8: PR005145 (VHH)
VHH: B1 VHH with S31F, H32Y, G53K, A60G, A100E, A102R
notes: as for B2
For B8, in test [2], the concentration for a half-maximal effect (EC50) was determined as 18 nM and the “MFI Maximum” value came out at 10500. Moreover, in test [4], the kdis ratio worked out at 21.8. In test [3], this molecule had a Kd of 5.31 nM, a dissociation rate constant (koff) of 5.24e-05 s⁻¹ and a kon of 9860 M⁻¹ s⁻¹.

B9: PR005096 (VHH)
VHH: B1 VHH with A100R, A102P, N105G
notes: as for B2
B9: in test [1], it took 27.6 nM to reach a half-maximal effect (EC50) and the “MFI Maximum” value stood at 4320. For the same molecule, in test [4], the kdis ratio is 1.91. In test [3], this molecule yielded a Kd of 10.4 nM, an off-rate (koff) of 0.000599 s⁻¹ and an association rate constant (kon) of 57900 M⁻¹ s⁻¹.

B10: PR005097 (VHH)
VHH: B1 VHH with A102R
notes: as for B2
As to B10, in test [1], the EC50 amounted to 17.9 nM and the “MFI Maximum” value stood at 4080. In test [4], the kdis ratio is 1.46. In addition, in test [3], the affinity, expressed as Kd, was 13.9 nM; the koff was 0.000784 s⁻¹; the association rate constant (kon) is 56600 M⁻¹ s⁻¹.

B11: PR005150 (VHH)
VHH: B1 VHH with H32F, G53K, G54A, A60G, D61A, A100E, A102R, N105Q
notes: as for B2
Turning to B11, in test [2], the response was half-maximal at 22.4 nM (EC50) and the “MFI Maximum” value is 10400. In test [3], the Kd was below 0.001 nM, the koff is below 1e-07 s⁻¹ and the kon came out at 59000 M⁻¹ s⁻¹.

B12: PR005141 (VHH)
VHH: B1 VHH with S31Y, H32F, G53K, T57G, D61A, A100E, A102R
notes: as for B2
For the molecule B12, in test [2], the EC50 stood at 110 nM and the “MFI Maximum” value is 13300. The kdis ratio in test [4] came out at 14.7. In test [3], this molecule displayed a Kd of 1.49 nM, a koff of 7.75e-05 s⁻¹ and a kon of 52100 M⁻¹ s⁻¹.

B13: PR005142 (VHH)
VHH: B1 VHH with S31F, H32Y, G53K, T57G, D61A, A100E, A102R
notes: as for B2
As for B13, in test [2], a half-maximal response (EC50) required 70.9 nM and the “MFI Maximum” value turned out to be 12400. Moreover, the kdis ratio in test [4] was 20.6. In test [3], this molecule showed a Kd of 6.76 nM, a koff of 5.55e-05 s⁻¹ and a kon of 8200 M⁻¹ s⁻¹.

B14: PR002478 (antibody, human IgG1, V domains shown)
VH: B1 VHH with H32N, R45L, D52H, G53S, M92V, T99I
notes: Heavy-chain-only antibody (HCAb), human IgG1 Fc; two heavy chains, no light chain; also called R4004P548A8
As to B14, in test [2], the EC50 was determined as 20.6 nM and the “MFI Maximum” value is 953000. In test [5], the IC50 came out at 54.5 nM and the “Maximum inhibition rate (%)” value was 97%.

B15: PR005147 (VHH)
VHH: B1 VHH with S31Y, H32Y, G53K, G54A, A60G, D61A, A100M, A102R
notes: as for B2
Take B15: in test [2], the EC50 is 382 nM and the “MFI Maximum” value was 18000. Besides, the kdis ratio in test [4] turned out to be 41.7. In test [3], binding was put at a Kd of 16.5 nM, the koff was 2.74e-05 s⁻¹ and the kon was determined as 1660 M⁻¹ s⁻¹.

B16: PR005093 (VHH)
VHH: B1 VHH with A100R, A102R, K104A
notes: as for B2
For B16, in test [1], the response was half-maximal at 10.5 nM (EC50) and the “MFI Maximum” value turned out to be 4530. The kdis ratio in test [4] turned out to be 1.8. In test [3], this molecule registered a Kd of 4.82 nM, a koff of 0.000636 s⁻¹ and a kon of 132000 M⁻¹ s⁻¹.

B17: PR002475 (antibody, human IgG1, V domains shown)
VH: B1 VHH with H32N, R45L, D52H, G53S, R77T, M92V, T99I
notes: Heavy-chain-only antibody (HCAb), human IgG1 Fc; two heavy chains, no light chain; also called R4004P547D9
Turning to B17, in test [2], the EC50 was 18.5 nM and the “MFI Maximum” value came out at 959000. In test [5], the IC50 was found to be 37.5 nM and the “Maximum inhibition rate (%)” value came out at 92.1%.
